Measured values taken from patent US20180245075, “INTEGRATED SYSTEM FOR PROGRAMMABLE DNA METHYLATION” (Trustees of Boston University, published 2018).

Experiments:
[1] = biological target: ZF10-1-Dam(N132A) writer (synI) (synthetic; Escherichia coli Dam, UniProt P0AEE8 SEQ:21-472); experiment: cell_activity; integrated Clustered Reporter, GATC 140 bp downstream, vs mCherry-Dam; ~6-fold on transient reporter (p253); conditions: tags: NLS, ZF10-1 six-finger array fused to Dam
Procedure: Fraction methylation was measured using m6A-qPCR at a single GATC site proximal to the ZF BS array in the singly integrated Clustered Reporter (6th site, 140 bp downstream from end of ZF array). (n=3; error bars, SD). […] (n=3; error bars, SD). […] Diagonal line represents no enrichment in ZF sequence-specific methylation over “background” methylation. Dam N132A and WT are marked in red and black, respectively. (n=3; error bars, SD). […] Cells were transfected with the indicated constructs: Interspersed Reporter only, ZF-VP64 constitutively expressed from pUBC, synI^NT (Dam WT) constitutively expressed from a strong promoter (pCLPIT with no Dox induction), synI^NT (Dam WT) constitutively expressed from a weak promoter (pMinCMV), and synI^NT (Dam N132A) constitutively expressed from a weak promoter (pMinCMV). Genomic DNA (gDNA) was isolated 2 days following transfection, digested with or without DpnII, run out on an agarose gel (top), and the bands used to quantify total fraction methylated DNA (bottom). Undigested bands appearing at the top of each lane in DpnII-treated samples represent methylated (protected) gDNA, while […] gDNA fragments that are digested by DpnII appear as a smear (from ˜0.3-2 kb). Total fraction methylated gDNA is calculated as undigested gDNA in DpnII-treated samples normalized by total gDNA. […]

ZF10-1-Dam(WT) writer = ZF10-1-Dam(WT) writer (synthetic; Escherichia coli Dam, UniProt P0AEE8 SEQ:21-472); experiment: cell_activity; with DpnI-VP64, episomal interspersed reporter; conditions: tags: NLS, ZF10-1 six-finger array fused to Dam
Procedure: Reporter plasmid was co-transfected with Writer and Reader-Effector constructs, and single-cell GFP levels were measured with flow cytometry two days post-transfection. […] Specific constructs corresponding to the data below were: Reporter: [8XZF_14XGATC_interspersed] minimal CMV promoter; Writer: minCMV-ZF10-1-Dam (WT); and Reader-Effector: UBC-NLS-DpnI DBD-VP64.
Flow cytometry measurements were performed using an Attune NxT Flow Cytometer (Thermo Fisher Scientific) equipped with a high-throughput auto-sampler. Typically, 50,000 or 70,000 events were acquired for transient transfection or stable cell line experiments, respectively. Cells were gated by forward (FSC) and side scatter (SSC) distributions, and either iRFP or mCherry expression for transfection- or integration-positive populations, respectively. For experiments with transient transfection of synI/synR modules (FIGS. 9A-9C), geometric means of the GFP fluorescence distributions were calculated using FLOWJO (Treestar Software). GFP fold change was then calculated by normalizing mean GFP intensity to reporter-only controls, unless otherwise noted. For spreading and memory experiments (with integrated constructs), the percentage of GFP activated cells was quantified using a GFP+gate that contains ˜0.5-1% of negative control cells (FIG. 17E). […]

B1: ZF10-1 binding sequence (BS), arrayed in reporter (dsDNA)
DNA 1: CGGCGTAGCCGATGTCGCGC
DNA 2: GCGCGACATCGGCTACGCCG
activity [1]: ~10 fold m6A enrichment | activity (ZF10-1-Dam(WT) writer): > 100 fold GFP activation
